Marks after values point to notes of the source that are not given here. Where no end group is shown, it is not given here.
Assays:
MCF-7 cells [1] = assay: Cytotoxicity of doxorubicin co-incubated with peptides (resazurin viability assay); format: cell-based; details: 48 h
Procedure: (§1) Fluorescence microscopic images after 30 min incubation in HeLa (A) and MCF-7 (B) cells with 10 μM CF-labeled peptides N50-sC18* or NrTP-sC18* co-incubated with 10 μg/mL doxorubicin at 37 °C, respectively. Cells treated with DOX alone served as negative control; Green: CF-labeled peptide; blue: Hoechst 33342 nuclear stain; red: doxorubicin; scale bar is 10 µm. (C) Cells were incubated for 48 h with DOX (1 µg/mL), or solutions out of peptides (10 µM) and DOX (1 µg/mL), or peptide solutions (10 µM) alone. Untreated cells served as negative control, cells treated for 10 min with 70% ethanol as positive control. Experiments were conducted in triplicate with n = 2.
Herein, the drug alone (1 μg/mL) or in presence of 10 μM solutions of the peptides sC18*, N50-sC18* and NrTP-sC18*, respectively, were incubated for 48 h with MCF-7 cells.
(§2) A total volume of 200 μL of cells (HeLa 40’000, MCF-7 50’000 cells per well) were seeded in 96-well plates and grown to 70–80% confluency. Afterwards, they were incubated with peptide or doxorubicin solutions (diluted in serum-free medium) in a total volume of 100 μL. In the wells that served as positive and negative controls, the medium was replaced by fresh medium without FBS. The plates were incubated for 24 h or 48 h at 37 °C. Afterwards, the positive control was treated with 100 μL of 70% EtOH for 10 min, and then all cells were washed with PBS. Cells were covered with 100 μL of a 10% resazurin solution in medium without FBS and incubated for 1–2 h at 37 °C. Afterwards, fluorescence was quantified by using a Tecan infinite M200 plate reader (excitation: 550 nm, emission: 595 nm).
Experiments were done in triplicate.

HeLa cells [2] = assay: Doxorubicin uptake on co-administration, fluorescence microscopy; format: cell-based; details: DOX 10 µg/mL, 30 min, 37 °C
Procedure: (§3) Doxorubicin is known to be fluorescent and this property was used to test if the peptides were able to enhance the intracellular uptake of the drug. Therefore, solutions out of DOX and the sequences N50-sC18* and NrTP-sC18* were incubated with HeLa and MCF-7 cells, respectively, and observed for red fluorescence afterwards (Figure 7A and 7B).
as §1, with “Figure 7 Uptake and delivery of DOX into HeLa and MCF-7 cells. Fluorescence” for “Fluorescence”
(§4) Cells were seeded in 350 μL medium in an 8-well ibidi plate (HeLa 45,000, MCF-7 70,000 cells per well) and were grown to 70–80% confluency. […] After adding 300 μL of fresh medium, pictures were taken using a fluorescence confocal microscope. […]

MCF-7 cells [3] = assay: as above; format: cell-based; details: MCF-7, DOX 10 µg/mL, 30 min, 37 °C
Procedure: as §3
as §1, with “Figure 7 Uptake and delivery of DOX into HeLa and MCF-7 cells. Fluorescence” for “Fluorescence”
as §4

[4] = Circular dichroism spectroscopy (secondary structure); format: physicochemical; details: 10 mM phosphate buffer pH 7.0 with TFE (50%), peptide 20 µM
Procedure: First, we performed a structural analysis by diluting all peptides to a concentration of 20 μM in phosphate buffer (pH 7.0), with or without the presence of the secondary structure inducing solvent trifluoroethanol (TFE).
Figure 1 Circular dichroism spectra of the novel peptides solved in 10 mM phosphate buffer (pH 7) (A), or phosphate buffer with the addition of TFE (50%) (B). Peptide concentration was 20 µM. (C) Helical wheel projections of the peptides N50-sC18* and NrTP-sC18*, respectively.
All peptides were analyzed in 10 mM potassium phosphate buffer (pH 7.0) with or without the addition of TFE (1:1 dilution) using a peptide concentration of 20 µM. Peptides were measured in a 0.1 cm quartz cuvette with a sensitivity of 100 mdeg in the range from 260 to 180 nm in 0.5 nm intervals. The scanning mode was continuous and a scanning speed of 50 nm/min was chosen. The results of pure buffer were subtracted from the spectra of the peptides. The ratio between the molar ellipticity at 222 nm and 207 nm was used to confirm an α-helical structure of peptides.

HeLa cells [5] = assay: Resazurin-based cell viability assay; details: 24 h; for concentration up to which no significant toxicity was observed: 37 °C, serum-free medium, resazurin read-out, n = 3 in triplicate
Procedure: (§5) In the next step, the cytotoxicity profiles of the novel peptide chimera were investigated. Therefore, we chose two different cancer cell lines, namely breast cancer MCF-7 and cervix carcinoma HeLa cells, which were exposed for 24 h to various concentrations of the peptides sC18*, N50, N50-sC18*, NrTP and NrTP-sC18* (Figure 2).
(§6) Figure 2 Cytotoxicity profiles of the peptides in MCF-7 and HeLa cells. Cells were incubated for 24 h with different concentrations of peptide solutions. Untreated cells served as negative control, cells treated with 70% ethanol as positive control. Values from the positive control were subtracted from all data, and the untreated cells were set to 100%; assays were performed with n = 3 in triplicate.
as §2
To achieve comparably results, the positive control was subtracted from all data and the negative control was set to 100%, so that the results of the peptide-treated cells represent relative cell viability values in %. Experiments were done in triplicate.
Peptide solutions of 1, 5, 10,
25, 40, 55, 70, 85 and 100 µM were incubated with HeLa cells (24 h, 37 °C). Afterwards a resazurin-based cell
viability assay was performed according to the experimental part.
(1 picture or pasted object on this page, not shown here)

HeLa cells [6] = assay: Cellular uptake, confocal fluorescence microscopy; format: cell-based; details: 10 µM CF-labeled peptide, 30 min, 37 °C; for cellular uptake (microscopy): trypan blue quench
Procedure: (§7) Next, we analyzed the intracellular fate of the new peptide variants using confocal fluorescence microscopy. Thus, MCF-7 and HeLa cells were incubated with 10 µM peptide solutions at 37 °C and inspected after 30 min (Figure 3).
(§8) Figure 3 Cellular uptake in HeLa and MCF-7 cells. Cells were incubated for 30 min with 10 µM of CF-labeled peptide solutions. Green: CF-labeled peptide; blue: Hoechst 33342 nuclear stain; scale bar is 10 µm.
(§9) For microscopic analyses, a confocal laser scanning system (Nikon D-Eclipse C1) with an inverted microscope (Nikon Eclipse Ti) was used. Pictures were taken with a 60× oil immersion objective (N.A. 1.4, Plan APO VC; Nikon) using the software EZ-C1 3.91 from Nikon.
(§10) Cells were seeded in 350 μL medium in an 8-well ibidi plate (HeLa 45,000, MCF-7 70,000 cells per well) and were grown to 70–80% confluency. Then, the medium was removed and the cells were treated with the peptides and substances in various concentrations for the requested time. Cells were incubated at 4 °C or 37 °C and 10 min prior to the end of incubation 0.6 μL of Hoechst stain (bisbenzimide H33342, 1 mg/mL in H2O, sterile filtered) was added to each well to stain the cell nuclei. After removing the solutions, cells were quenched with 200 μL of 150 μM trypan blue solution (in acetate buffer) for 30 s. The stain was removed and the cells were washed twice with medium. After adding 300 μL of fresh medium, pictures were taken using a fluorescence confocal microscope. Images were edited in Image J 1.43m.

MCF-7 cells [7] = assay: Cellular uptake, confocal fluorescence microscopy; format: cell-based; details: MCF-7, 10 µM CF-labeled peptide, 30 min; for cellular uptake (microscopy) / intracellular distribution: 37 °C, confocal fluorescence; for cellular uptake (microscopy): trypan blue quench
Procedure: as §7, §8, §9, §10

HeLa cells [8] = assay: Cellular uptake, confocal fluorescence microscopy; format: cell-based; details: 1 μM CF-labeled peptide, 37 °C; for cellular uptake (microscopy) at 1 μM: 30 and 120 min; for intracellular distribution at 1 μM: 30 or 120 min
[9] = tested on: several different cell lines; details: cited from earlier work
Procedure: Within their studies, the authors used higher concentrations, longer incubation times and other cell lines, what could probably explain the different results obtained in our study. In fact, it is very likely that working with increased concentrations of the NrTP sequence could probably improve the cell-penetrating capability of this peptide. Also for the N50 sequence alone, the internalization ability in several different cell lines was already determined [[2 ...

MCF-7 cells [10] = assay: Resazurin-based cell viability assay; details: 24 h, 37 °C, serum-free medium, resazurin read-out, n = 3 in triplicate
Procedure: as §5, §6
as §2, with “Afterwards, the positive control was treated with 100 μL of 70% EtOH for 10 min, and then all cells were washed with PBS. Cells were covered with 100 μL of a 10% resazurin solution in medium without FBS and incubated for 1–2 h at 37 °C.” left out, “nm). […]” for “nm).”

HeLa cells [11] = assay: Cellular uptake quantified by flow cytometry; format: cell-based; details: 10 µM peptide, 30 min, 37 °C, serum-free medium, 10,000 cells, triplicate
Procedure: (§11) Figure 4 Cellular uptake in MCF-7 and HeLa cells was quantified by flow cytometry. Cells were incubated with 10 µM peptide solutions for 30 min at 37 °C.
(§12) Cells were seeded in 24-well plates (HeLa 170,000, MCF-7 200,000 cells per well) and grown to 70–80% confluency. Then, cells were treated with 400 μL of peptide solutions dissolved in serum-free medium for the appropriate time at 4 °C or 37 °C. Afterwards, the cells were washed twice with PBS and detached with Trypsin-EDTA 1× in PBS without phenol red for 3–5 min followed by adding 800 μL of indicator-free medium. Cells were resuspended and 200 μL of the suspension were transferred to a 96-well plate for measuring the fluorescence in the Guava® easyCyte flow cytometer (Merck). In each sample, 10,000 cells were measured and each experiment was done in triplicate. Cells treated with medium only served as negative control and their fluorescent signal was subtracted from all other samples in each set of experiment.

MCF-7 cells [12] = assay: Cellular uptake quantified by flow cytometry; format: cell-based; details: MCF-7, 10 µM peptide, 30 min, 37 °C, serum-free medium, 10,000 cells, triplicate
Procedure: as §11, §12

[13] = MCF-7, peptide 10 μM + DOX 1 μg/mL

Compound | secondary structure (CD) [4] | concentration up to which no significant toxicity was observed (HeLa cells [5]; HeLa cells) [µM] | cellular uptake (microscopy) (HeLa cells [6]) | cellular uptake (microscopy) (MCF-7 cells [7]) | effect of the peptide on the toxic effect / efficacy of DOX (MCF-7 cells [1]; [13]) | cellular uptake (microscopy) at 1 μM (HeLa cells [8]) | concentration up to which no toxic effects were observed (MCF-7 cells [10]) [µM] | intracellular distribution (HeLa cells [6]) | intracellular distribution at 4 °C (MCF-7 cells [7]) | intracellular distribution (MCF-7 cells [7]) | cellular uptake (flow cytometry) (HeLa cells [11]) | cellular uptake (flow cytometry) (MCF-7 cells [12]) | intracellular distribution at 1 μM (HeLa cells [8]) | other results
COc1cccc2c1C(=O)c1c(O)c3c(c(O)c1C2=O)C[C@@](O)(C(=O)CO)C[C@@H]3O[C@H]1C[C@H](N)[C@H](O)[C@H](C)O1 [doxorubicin] |  |  |  |  |  |  |  |  |  |  |  |  |  | amount of viable cells, doxorubicin alone (MCF-7 cells [1]; MCF-7, DOX 1 μg/mL, triplicate with n = 2): about 60%; red fluorescence of DOX in cells, DOX only (HeLa cells [2]): Minor red fluorescence; red fluorescence of DOX in cells, DOX only (MCF-7 cells [3]): Minor red fluorescence
GLRKRLRKFRNK [sC18*, shortened version of the cell-penetrating peptide sC18, lacking its four C-terminal amino acids] | α-helical character | ≤ 50 | only small dots were detectable | only small dots were detectable | could not enhance the efficacy of DOX | no uptake at all |  |  |  |  |  |  |  | 
VQRKRQKLMP [N50, reference compound] | random coil structure | ≤ 50 | not noticeable present | not noticeable present |  | no uptake at all |  |  |  |  |  |  |  | internalization ability / uptake [9]: very low
VQRKRQKLMPGLRKRLRKFRNK [N50-sC18*] | formed α-helices | ≤ 50 | entered the cells extremely efficiently compared to sC18* alone | entered the cells extremely efficiently compared to sC18* alone | significantly improved |  | ≤ 100 | distributed within the whole cell cytosol, and accumulated particularly around the nucleus | mainly detectable within the nuclei | distributed within the whole cell cytosol, and accumulated particularly around the nucleus | extremely high uptake | extremely high uptake | diffusely distributed within the cytosol and the nuclei of HeLa cells, and after 120 min it mainly accumulated within the nuclei | R-value (ratio between the molar ellipticity at 222 nm and 207 nm) ([4]; CD): 0.83; number of viable cells after co-treatment with DOX (MCF-7 cells [1]; MCF-7, peptide 10 μM + DOX 1 μg/mL, triplicate with n = 2): 30%
YKQCHKKGGKKGSGGLRKRLRKFRNK-NH2 [NrTP-sC18*] |  | ≤ 50 | entered the cells extremely efficiently compared to sC18* alone | entered the cells extremely efficiently compared to sC18* alone |  |  | ≤ 100 | strong accumulation within the nucleoli | evenly distributed throughout the whole cell, including strong accumulation in the nuclei | strong accumulation within the nucleoli | extremely high uptake | extremely high uptake | accumulates in endosomes | IC50 (HeLa cells [5]): 53.7 ± 4.79 µM; effect on cell viability at 50 µM (HeLa cells [5]; HeLa cells, 50 µM): seemed to affect cell viability; effect on cell viability at higher concentrations (HeLa cells [5]; HeLa cells, concentrations above 50 µM): all cells were dead
